Read-outs that look alike come from different tables or passages of the source.
Columns and labels:
Assay in all cases: FRET or BRET
FRET or BRET [1] = biological target: the molecule itself
FRET or BRET [2] = biological target: the molecule itself; remark: listed apart in the source
FRET or BRET [3] = biological target: the molecule itself; remark: listed apart in the source

B1: CYP2E1 labeled with BODIPY-618 maleimide (enzyme, human, UniProt P05181 1-493, looked up)
chain: MSSMWRQVHSSWNLPPGPFPLPIIGNLFQLELKNIPKSFTRLAQRFGPVFTLYVGSQRMVVMHGYKAVKEALLDYKDEFSGRGDLPAFHAHRDRGIIFNNGPTWKDIRRFSLTTLRNYGMGKQGNESRIQREAHFLLEALRKTQGQPFDPTFLIGCAPCNVIADILFRKHFDYNDEKFLRLMYLFNENFHLLSTPWLQLYNNFPSFLHYLPGSHRKVIKNVAEVKEYVSERVKEHHQSLDPNCPRDLTDCLLVEMEKEKHSAERLYTMDGITVTVADLFFAGTETTSTTLRYGLLILMKYPEIEEKLHEEIDRVIGPSRIPAIKDRQEMPYMDAVVHEIQRFITLVPSNLPHEATRDTIFRGYLIPKGTVVVPTLDSVLYDNQEFPDPEKFKPEHFLNENGKFKYSDYFKPFSTGKRVCAGEGLARMELFLLLCAILQHFNLKPLVDPKDIDLSPIHIGFGCIPPRYKLCVIPRS
modifications: BODIPY-618 maleimide label, 2:1 label to protein ratio (labelled residues not stated)
FRET or BRET [1]
  (Lipid/CYP2E1)50%: 604 molar ratio
FRET or BRET [2]
  (Lipid/CYP2E1)50%: 14400 molar ratio
FRET or BRET [3]
  (Lipid/CYP2E1)50%: 176 molar ratio

— PMC7856178 (Archives of biochemistry and biophysics, 2020)
